# Entries after “also recorded” stand apart in the source; their conditions may differ.
# B1: NT-3: neurotrophin-3 (Peprotech) (protein, UniProt P20783 139-257, looked up)
# Neurotrophin-3: YAEHKSHRGEYSVCDSESLWVTDKSSAIDIRGHQVTVLGEIKTGNSPVKQYFYETRCKEARPVKNGCRGIDDKHWNSQCKTSQTYVRALTSENNKLVGWRWIRIDTSCVCALSRKIGRT
# modifications: Neurotrophin-3
# How the values were obtained:
# [1] = test system: NST+ cells in the heterogeneous culture; assay: Counting NST+ cells (anti-NST labeling) in heterogeneous olfactory cell cultures with growth factors; type: cell-based, mouse; settings: for Normalized # of NST+ Cells: 100 ng.ml^−1
# Procedure: FIG. 2A. Interferon causes a significant, dose-dependent increase in the number of NST+ cells in the heterogeneous culture, with an EC50 of 0.4 U.ml^−1. Cells were incubated at 33° C. and were stained with anti-NST and rhodamine-coupled secondary antibodies seven days after plating. Cell counts were obtained from ten randomly selected areas in each experiment. Data were normalized to the mean number of NST+ cells in the absence of interferon and each point represents the mean ±S.E.M from three experiments.
# FIG. 2B. EGF (•) and NGF (□) both have mitogenic effects in permissive conditions over and above the effect of interferon. NST+ cells were counted as described in (A) and were normalized to baseline levels in the presence of interferon (40 U.ml^−1). […] Except for the presence of interferon (40 U.ml^−1), all experimental conditions were as in A.
# To determine the optimal conditions for cell survival, growth, differentiation and maturation, cells were cultured in permissive and non-permissive conditions in the presence of interferon, EGF, NGF, BDNF and NT-3. […] The effects of EGF, NGF, BDNF and NT-3 on cell maturation in non-permissive culture conditions were
# To keep the amount of expressed TAg to the minimum required for immortalization (Noble et al., 1995), heterozygous offspring from homozygous male H-2K^b-tsA58 transgenic and C57B1 female mice (Charles River Laboratories, Wilmington Mass., and Jackson Laboratory, Bar Harbor, Me., respectively) were used to generate the conditionally immortal neuronal cell culture. Cells were isolated in a procedure modified from a previously established technique (Ronnett et al., 1991). Briefly, post-natal day 1-3 animals were decapitated and the heads were sectioned longitudinally. The olfactory epithelium and nasal septum were removed and placed in an Eppendorf tube containing 500 μl culture medium. The culture medium consisted of Minimum Essential Medium in which the L-valine has been replaced by D-valine (MDV). This was supplemented with 10% fetal bovine serum (FBS), 4 mM glutamine, kanamycin (100 μg.ml^−1), gentamicin (50 U.ml^−1) and amphotericin B (2.5 μg.ml^−1; all from Gibco BRL, Gaithersburg, Md.). The MDV medium was chosen because fibroblasts lack D-amino acid oxidase and the reduction of L-valine inhibits fibroblast survival and growth (Gilbert et al., 1986). Tissue was centrifuged at low speed for two minutes and then most of the medium was removed. The cell pellet was chopped briefly with a pair of fine-point scissors before being resuspended in supplemented cell culture medium. The resultant cell clumps and cell suspension were plated out onto 2- or 4-chamber glass slides (Nunc, Naperville, Ill.) or plastic dishes (Fisher Scientific, Pittsburgh, Pa.). To enhance ORN adhesion, all cell culture materials were pretreated with laminin (0.125 mg.ml^−1 in serum-free media, Collaborative Biomedical Products, Bedford, Mass.) for at least 12 hours, prior to plating. Cells were maintained in culture at 33° C. (the permissive temperature for the SV40 TAg) and, to stimulate transcription of the transgene, the culture medium was supplemented with murine γ-interferon (40 U.ml^−1, Genzyme, Cambridge, Mass.). Provisionally, in permissive conditions, the cell culture medium was supplemented with epidermal growth factor (EGF, 20 ng.ml^−1, Gibco BRL) and 2.5 S nerve growth factor (NGF, 10 ng.ml^−1, Gibco BRL) before thorough characterizations of their effects were made in later experiments.
# To determine optimum conditions for cell survival, growth, differentiation or maturation, numerous combinations of culture conditions were tested. These included i) removal of the olfactory epithelium from newborn, 4-week-old, and sexually mature animals, ii) subjecting tissue to digestion by trypsin (Gibco BRL, 0.5 g.l^−1 for 60 minutes at 37° C.), iii) addition of growth factors to the culture medium and iv) the use of diverse culture media. […]
# [2] = test system: olfactory marker protein (OMP); assay: OMP expression by Western blot in cells in non-permissive conditions; type: cell-based, mouse; settings: 37° C., heterogeneous cell cultures, 15 μg protein per lane
# Procedure: FIG. 2C. Effects of EGF, NGF, BDNF and NT-3 on OMP expression as determined by Western blot. Cells were maintained in non-permissive conditions at 37° C. in the absence of growth factors (C) or in presence of EGF (E), NGF (N), BDNF (B) or NT-3 (3). Samples were isolated from the heterogeneous cell cultures and from olfactory tissue (T), and were separated on a SDS-polyacrylamide gel (15 μg protein per lane). OMP is a 19 kD protein and, in situ, is expressed only in mature olfactory receptor neurons. OMP was not detected in control cells (C), cultured in the absence of growth factors or in cells incubated in the presence of EGF.
# assayed by Western blot detection of olfactory marker protein (OMP), a marker of mature olfactory receptor neurons (Margolis, 1988).
# Cells were always maintained in permissive culture conditions except when attempts were made to obtain a differentiated phenotype through transgene inactivation. In this case, cells were incubated in non-permissive culture conditions, i.e. at 37° C. in γ-interferon-free media for seven days, before the effects of transgene inactivation were determined. The effects of EGF, NGF, BDNF and NT-3 in promoting cell maturation/differentiation were assessed and, based on those experiments, BDNF and NT-3 were routinely added to the culture medium for cells in non-permissive culture conditions. In both culture environments, the air was kept humidified and contained 5% CO2.
# Cells were scraped into a cold isolation buffer containing 20 mM Na(N-tris[hydroxymethyl]methyl-2-aminoethanesulfonic acid) (Na TES), 10 mM mannitol and 1% Triton X-100 at pH 7.4. The isolation buffer was supplemented with phenylmethylsulfonyl fluoride (30 μg.ml^−1), leupeptin (2 μg.ml^−1), benzamidine (16 μg.ml^'1), pepstatin (2 μg.ml^−1), and lima bean trypsin inhibitor (50 μg.ml^−1) to prevent protease activity. After five freeze/thaw cycles, cell extracts were centrifuged at 2,000 g for 5 minutes to pellet nuclei and cell debris. […]
molecule,measurement,setting,value
B1,Normalized # of NST+ Cells,"[1]; 33° C., in the presence of 40 U.ml^−1 interferon, normalized to that point",0.8 ± 0.1
same,Normalized # of NST+ Cells,[1]; 37° C.,1.4 ± 0.1
same,Effect on the number of NST+ cells (in words),[1]; permissive conditions (33° C.),no effect
same,OMP expression detected by Western blot (in words),[2],significant expression of OMP could be observed; also recorded: greater from cells incubated with NT-3 than with BDNF; also recorded: most readily detected
